In US20250236663A1:

Key:
[1] = biological target: Recombinant human FAM19A5 protein (His-tagged) (human) (UniProt Q7Z5A7); experiment: two-site sandwich ELISA, capture antibody 13B4; O.D. 0.27 / 0.22 / 0.22 at antigen 100 / 10 / 0 (ng/mL); grey box
[2] = biological target: Recombinant human FAM19A5 protein (His-tagged) (human) (UniProt Q7Z5A7); experiment: ELISA, N'-Term His; R² 0.9746
[3] = biological target: Recombinant human FAM19A5 protein (His-tagged) (human) (UniProt Q7Z5A7); experiment: two-site sandwich ELISA, capture antibody 1-65; O.D. 0.16 / 0.15 / 0.15 at antigen 100 / 10 / 0 (ng/mL); grey box
[4] = biological target: Recombinant human FAM19A5 protein (His-tagged) (human) (UniProt Q7Z5A7); experiment: two-site sandwich ELISA, capture antibody 3-2; O.D. 1.91 / 1.66 / 0.16 at antigen 100 / 10 / 0 (ng/mL); white box
[5] = biological target: Recombinant human FAM19A5 protein (His-tagged) (human) (UniProt Q7Z5A7); experiment: ELISA, N'-Term His; design: unit not given here
[6] = biological target: Recombinant human FAM19A5 protein (His-tagged) (human) (UniProt Q7Z5A7); experiment: two-site sandwich ELISA, capture antibody 2-13; O.D. 1.88 / 1.72 / 0.22 at antigen 100 / 10 / 0 (ng/mL); white box
[7] = biological target: Recombinant human FAM19A5 protein (His-tagged) (human) (UniProt Q7Z5A7); experiment: two-site sandwich ELISA, capture antibody P2-F11; O.D. 0.15 / 0.15 / 0.14 at antigen 100 / 10 / 0 (ng/mL); grey box
[8] = biological target: Recombinant human FAM19A5 protein (His-tagged) (human) (UniProt Q7Z5A7); experiment: two-site sandwich ELISA, capture antibody 2-13; O.D. 1.83 / 2.04 / 0.29 at antigen 100 / 10 / 0 (ng/mL); white box
[9] = biological target: Recombinant human FAM19A5 protein (His-tagged) (human) (UniProt Q7Z5A7); experiment: two-site sandwich ELISA, capture antibody 13B4; O.D. 0.2 / 0.18 / 0.18 at antigen 100 / 10 / 0 (ng/mL); grey box
[10] = biological target: Recombinant human FAM19A5 protein (His-tagged) (human) (UniProt Q7Z5A7); experiment: two-site sandwich ELISA, capture antibody 1-65; O.D. 1.25 / 0.2 / 0.12 at antigen 100 / 10 / 0 (ng/mL); grey box but for the cell of 100
[11] = biological target: Recombinant human FAM19A5 protein (His-tagged) (human) (UniProt Q7Z5A7); experiment: ELISA, N'-Term His; R² 0.9692
[12] = biological target: Recombinant human FAM19A5 protein (His-tagged) (human) (UniProt Q7Z5A7); experiment: two-site sandwich ELISA, capture antibody 3-2; O.D. 2.02 / 1.81 / 0.13 at antigen 100 / 10 / 0 (ng/mL); white box
[13] = biological target: Recombinant human FAM19A5 protein (His-tagged) (human) (UniProt Q7Z5A7); experiment: two-site sandwich ELISA, capture antibody P2-A03; O.D. 0.09 / 0.09 / 0.09 at antigen 100 / 10 / 0 (ng/mL); grey box
[14] = biological target: Recombinant human FAM19A5 protein (His-tagged) (human) (UniProt Q7Z5A7); experiment: two-site sandwich ELISA, capture antibody 2-13; O.D. 1.92 / 0.65 / 0.21 at antigen 100 / 10 / 0 (ng/mL); white box
[15] = biological target: Recombinant human FAM19A5 protein (His-tagged) (human) (UniProt Q7Z5A7); experiment: two-site sandwich ELISA, capture antibody 1-65; O.D. 0.12 / 0.12 / 0.12 at antigen 100 / 10 / 0 (ng/mL); grey box
[16] = biological target: Recombinant human FAM19A5 protein (His-tagged) (human) (UniProt Q7Z5A7); experiment: ELISA, N'-Term His; R² 0.8823
[17] = biological target: Recombinant human FAM19A5 protein (His-tagged) (human) (UniProt Q7Z5A7); experiment: OCTET (BLI), His-tagged FAM19A5 on Ni-NTA biosensors, antibody at 1.1-300 nM
[18] = biological target: Recombinant human FAM19A5 protein (His-tagged) (human) (UniProt Q7Z5A7); experiment: two-site sandwich ELISA, capture antibody 3-2; O.D. 1.7 / 0.3 / 0.13 at antigen 100 / 10 / 0 (ng/mL); white box
[19] = biological target: Recombinant human FAM19A5 protein (His-tagged) (human) (UniProt Q7Z5A7); experiment: two-site sandwich ELISA, capture antibody P2-A03; O.D. 0.15 / 0.16 / 0.14 at antigen 100 / 10 / 0 (ng/mL); grey box
[20] = biological target: Recombinant human FAM19A5 protein (His-tagged) (human) (UniProt Q7Z5A7); experiment: two-site sandwich ELISA, capture antibody P2-F11; O.D. 0.14 / 0.16 / 0.15 at antigen 100 / 10 / 0 (ng/mL); grey box
[21] = biological target: Recombinant human FAM19A5 protein (His-tagged) (human) (UniProt Q7Z5A7); experiment: ELISA, N'-Term His; R² 0.9329
[22] = biological target: Recombinant human FAM19A5 protein (His-tagged) (human) (UniProt Q7Z5A7); experiment: ELISA, N'-Term His; R² 0.9813
[23] = biological target: Recombinant human FAM19A5 protein (His-tagged) (human) (UniProt Q7Z5A7); experiment: ELISA, N'-Term His; R² -0.2016
[24] = biological target: Recombinant human FAM19A5 protein (His-tagged) (human) (UniProt Q7Z5A7); experiment: ELISA, N'-Term His; R² 0.9105

B1: Anti-FAM19A5 (P2-A03) (antibody, V domains shown)
VH: QSVEESGGRLVTPGTPLTLTCTVSGFSLNNYDMSWVRQAPGKGLEYIGFMDTDGSAYYATWAKGRFTISRTSTTVDLKMTSPTTEDTATYFCARRGSSYYGGIDIWGPGTPVTVSL
VL: ELDLTQTPASVSEPVGGTVTIKCQASQSIGGNLAWYQQKPGQPPKLLIYRASTLASGVPSRFKGSGSGTDFTLTISDLECADAATYYCQSPAYDPAAYVGNAFGGGTELEIL
S/N [1]: 1 | Kd [2]: 0.61 nM | S/N [3]: 1 | S/N [4]: 10 | Bmax [5]: 3.37 | S/N [6]: 7.8 | S/N [7]: 1.1

B2: Anti-FAM19A5 (P2-F11) (antibody, V domains shown)
VH: QEQLVESGGRLVTPGTTLTLTCTVSGFSLSSYGVSWVRQAPGKGLEWIGYIANNYNPHYASWAKGRFTISKTSSTTVDLKMTSLTTEDTATYFCARDNYGMDPWGPGTLVTVSS
VL: ELDLTQTPSSVSAAVGGTVTINCQASQSVYNNKNLAWYQQKPGQPPKLLIYAASTLASGVSSRFKGSGSGTQFTLTISDVQCDDAATYYCQGEFSCSSADCNAFGGGTELEIL
S/N [8]: 7 | S/N [9]: 1 | S/N [10]: 1.7 | Kd [11]: 0.41 nM | S/N [12]: 13.9 | S/N [13]: 1 | Bmax [5]: 3.26

B3: Anti-FAM19A5 (13B4) (antibody, V domains shown)
VH: QVQLQESGPGLVKPSGTLSLNCAVSGGSISSSNWWSWVRQPPGKGLEWIGEIYHGGTTNYNPSLKGRVTMSVDKTKNQFSLRLSSVTAVDTAVYYCARWQLVGGLDVWGQGTTVTVSS
VL: SYELTQPLSVSVSPGQTASITCSGDKLGNVYASWYQQKPGQSPTLVIYQDNKRPSGIPERFSGSNSGKTATLTISGTQALDEADYYCQAWDSSTAVFGGGTKLTVL
S/N [14]: 3.1 | S/N [15]: 1 | Kd [16]: 1.06 nM | Kd [17]: 3.6 nM | S/N [18]: 2.3 | Bmax [5]: 2.84 | S/N [19]: 1.1 | S/N [20]: 1.1

B4: Anti-FAM19A5 (13F7) (antibody, V domains shown)
VH: QVQLQEWGAGLLKPSETLSLTCAINAESFNGYSWTWIRQTPGKGLEWIGEISHFGSANYNPSLKSRATISADKSKNQFSLKLTSVTAVDTAVYYCARALRGTYSRFYYGMDVWGQGTTVTVSS
VL: DIVMTQTPLSLPVAPGEPASISCRSSQSLLHSNGYNYLDWYVQKPGQPPQLLIYLGSNRASGVPDRFSGSGSGTDFTLKISRVEAEDVGVYYCMQARQTPLTFGGGTKVEIK
Kd [21]: 2.77 nM | Kd [17]: 0.25 nM | Bmax [5]: 3.04

B5: P1-A03 (antibody, V domains shown)
VH: QSVEESGGRLVTPGTPLTLTCTVSGFSLSSDYMSWVRQAPGEGLEWIGIIYPSTTTYYASWAKGRFTISKTSSTTVELKMTSLTTEDTATYFCARGSNWSSGMNLWGPGTLVTVSS
VL: ELVMTQTPPSLSASVGETVRIRCLASEDIYSGISWYQQKPEKPPTLLISGASNLESGVPPRFSGSGSGTDYTLTIGGVQAEDAATYYCLGGYSYSSTGLTFGAGTNVEIK
Bmax [5]: 2.45 | Kd [22]: 7.5 nM

B6: Anti-FAM19A5 (P1-A08) (antibody, V domains shown)
VH: QSLEESGGRLVTPGTPLTLTCTASGFSLSTYYMSWVRQAPGKGLEWIGIVYPSGTTYYANWAKGRFTISTASTTVDLMITSPTTEDTATYFCARGDSFGYGLWGPGTLVTVSS
VL: ELVLTQSPSVQVNLGQTVSLTCTADTLSRSYASWYQQKPGQAPVLLIYRDTSRPSGVPDRFSGSSSGNTATLTISGAQAGDEADYYCATSDGSGSNYQYVFGGGTQLTVT
Bmax [5]: 0.479 | Kd [23]: 6.95 nM

B7: Anti-FAM19A5 (P2-A01) (antibody, V domains shown)
VH: QEQLVESGGRLVTPGTPLTLSCTASGFFLSGYYMSWVRQAPGKGLEWIGIIYPSGSTDYASWAKGRFTISKTSTTVDLKITTPTTEDTATYFCARVAGYVGYGYETFFDIWGPGTLVTVSL
VL: ELVMTQTPPSLSASVGETVRIRCLASEDIYSGISWYQQKPGKPPTLLIYGASNLESGVPPRFSGSGSGSDYTLTIGGVQAEDAATYYCLGGVTYSSTGTHLTFGAGTNVEIK
Bmax [5]: 1.19 | Kd [24]: 9.09 nM

B8: Anti-FAM19A5 (P1-F02) (antibody, V domains shown)
VH: QSLEESGGRLVTPGTPLTLTCTASGFSLSNYYMGWVRQAPGEGLEWIGIIYASGSTYYASWAKGRFTISKTSTTVDLKMTSLTTEDTATYFCARIDIGVGDYGWAYDRLDLWGQGTLVTVSS
VL: ELDMTQTPPSLSASVGETVRIRCLASEDIYSGISWYQQKPGKPPTLLIYGASNLESGVPPRFSGSGSGTDYTLTIGGVQAEDAATYYCLGGYSYSSITFGAGTNVEIK
Bmax [5]: 0.172

B9: Anti-FAM19A5 (P2-F07) (antibody, V domains shown)
VH: QSLEESGGRLVTPGTPLTLTCTASGFSLSSYYMNWVRQAPGKGLEWIGIIYPSGTTYYAGWAKGRFTISKTSTTVDLKITSPTSEDTATYFCARTVSGYFDIWGPGTLVTVSL
VL: ELDLTQTPPSLSASVGGTVTINCLASEDIYSALAWYQQKPGKPPTLLISGTSNLESGVPPRFSGSGSGTDYTLTIGGVQAEDAATYFCQGYSSYPLTFGAGTNVEIK
Bmax [5]: 0.134

B10: Anti-FAM19A5 (15A9) (antibody, V domains shown)
VH: QVQLQESGPGLVKPSETLSLTCTVSGGSISSYYWSWIRQPPGKGLEWIGYIYPSGSTNYNPSLKSRVTISVDTSKNQFSLNLKSVTAVDTAVYYCARVNPFGYYYAMDVWGQGTTVTVSS
VL: DIQMTQSPSSLSASVGDRITISCRASQSISTSLNWYQQTPGKAPRLLIYGASTLQSGVPSRFSGGGSGTDFSLTITSLQPEDFATYYCQESASIPRTFGQGTKLDIK
Kd [17]: 5.95 nM
